T1: Flag-Tah1 (S. cerevisiae, UniProt P25638 1-111)
T1 construct: Tah1, yeast
T1 sequence (looked up): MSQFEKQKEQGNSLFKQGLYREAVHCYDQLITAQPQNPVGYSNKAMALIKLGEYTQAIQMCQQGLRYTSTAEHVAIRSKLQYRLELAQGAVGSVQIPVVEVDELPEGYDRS

T2: Tah1 (full-length yeast Tah1) (S. cerevisiae, UniProt P25638 1-111)
T2 construct: Tah1, yeast (S. cerevisiae), synthetic full-length gene expressed from pRSET-A; In the crystal two Tah1 chains form a helix-swapped dimer; in solution Tah1 is mainly monomeric; also called TPR domain of Tah1
T2 sequence (looked up): T1 sequence (looked up)

B1: Hsp90 600-709 (domain or fragment)
chain: not shown
notes: Hsp90 C-terminal fragment, residues 600-709; Used at 70 µM in the pull-down; also called cHsp90
B2: Hsp90 peptide EDASRMEEVD (peptide)
peptide: EDASRMEEVD
notes: C-terminal peptide of Hsp90 with the conserved MEEVD motif; also called MEEVD peptide of Hsp90; SRMEEVD peptide

Legend:
Flag-Tah1 = target: T1, Flag-Tah1; experiment: pull-down; 70 µM Flag-Tah1 and Hsp90 600-709 with increasing AIP 172-315 or full-length AIP (5-10 molar excess); 20 mM HEPES pH 7.5, 150 mM NaCl, 10% glycerol, 0.5% IGEPAL, 2 mM EDTA; captured on anti-Flag M2 magnetic beads; eluate on SDS-PAGE; conditions: both partners purified
[1] = target: T2, Tah1 (full-length yeast Tah1); experiment: crystal structure; Tah1 at 10 mg/ml with 5 mM … peptide; sitting drop, 100 mM MES pH 6.0, 200 mM ammonium chloride, 20% PEG 6000, 4°C; refined to 2 Å; conditions: both partners purified

| Binder | binding result (Flag-Tah1) | binding result [1] |
| --- | --- | --- |
| B1 | binds | – |
| B2 | – | binds |

From PMC4427203, “Tah1 helix-swap dimerization prevents mixed Hsp90 co-chaperone complexes” (Acta Crystallographica Section D: Biological Crystallography, 2015)
